From publication PMC4064709, “Acceleration of an aldo-keto reductase by minimal loop engineering” (Protein Engineering, Design and Selection, 2014)

Legend:
Experiment in all cases: initial rates of NADH-dependent reduction
Format in all cases: biochemical, Yamadazyma tenuis
CC(=O)c1ccc(Cl)cc1Cl = test system: T1, CC(=O)c1ccc(Cl)cc1Cl; settings: apparent; 300 µM NADH; max 5 mM; W23 and K24 replaced by pentapeptide FAPRE
T1 construct: full-length enzyme; redesigned CtXR expressed in E. coli BL21 (DE3), purified by dye ligand chromatography
From the text: (§1) initial rates of NADH-dependent reduction on Candida tenuis xylose reductase (CtXR)

CC(=O)c1ccccc1Cl = test system: T2, CC(=O)c1ccccc1Cl; settings: apparent; 300 µM NADH; max 10 mM; W23 and K24 replaced by pentapeptide FAPRE
T2 construct: full-length enzyme; redesigned CtXR expressed in E. coli BL21 (DE3), purified by dye ligand chromatography
From the text: as §1

[1] = test system: T3, CCOC(=O)C(=O)c1ccc(C#N)cc1; settings: apparent; 300 µM NADH; max 10 mM; W23 and K24 replaced by pentapeptide FAPRE
T3 construct: full-length enzyme; redesigned CtXR expressed in E. coli BL21 (DE3), purified by dye ligand chromatography
From the text: as §1

[2] = test system: T4, NC(=O)C1=CN([C@@H]2O[C@H](COP(=O)(O)OP(=O)(O)OC[C@H]3O[C@@H](n4cnc5c(N)ncnc54)[C@H](O)[C@@H]3O)[C@@H](O)[C@H]2O)C=CC1; settings: apparent; co-substrate 2′-chloroacetophenone (max 10 mM), as in the wild-type row; W23 and K24 replaced by pentapeptide FAPRE; varied: cofactor
T4 construct: full-length enzyme; redesigned CtXR expressed in E. coli BL21 (DE3), purified by dye ligand chromatography
From the text: as §1

[3] = substrate: CC(=O)c1ccc(Cl)cc1Cl; settings: apparent; 300 µM NADH; incomplete substrate saturation (max 5 mM)
From the text: as §1

[4] = substrate: CC(=O)c1ccccc1Cl; settings: apparent; 300 µM NADH; incomplete substrate saturation (max 10 mM)
From the text: as §1

[5] = substrate: CCOC(=O)C(=O)c1ccc(C#N)cc1; settings: apparent; 300 µM NADH; incomplete substrate saturation (max 10 mM)
From the text: as §1

[6] = substrate: NC(=O)C1=CN([C@@H]2O[C@H](COP(=O)(O)OP(=O)(O)OC[C@H]3O[C@@H](n4cnc5c(N)ncnc54)[C@H](O)[C@@H]3O)[C@@H](O)[C@H]2O)C=CC1; settings: apparent; co-substrate 2′-chloroacetophenone (max 10 mM); varied: cofactor
From the text: as §1

Candida tenuis xylose reductase (CtXR) (Yamadazyma tenuis; INS25PRE/K25A/W24F)
Km (CC(=O)c1ccc(Cl)cc1Cl): 4 ± 1 mM | kcat (CC(=O)c1ccc(Cl)cc1Cl): 2.0 ± 0.4 s⁻¹ | Km (CC(=O)c1ccccc1Cl): 5 ± 2 mM | kcat (CC(=O)c1ccccc1Cl): 1.0 ± 0.2 s⁻¹ | kcat/Km (CC(=O)c1ccccc1Cl): 370 ± 50 M⁻¹ s⁻¹ | Km [1]: 4 ± 1 mM | kcat [1]: 17 ± 2 s⁻¹ | Km [2]: 70 ± 20 µM | kcat [2]: 1.0 ± 0.2 s⁻¹ | kcat/Km [2]: 7600 ± 500 M⁻¹ s⁻¹

B1: Candida tenuis xylose reductase (CtXR) (Yamadazyma tenuis) (protein)
chain: MSASIPDIKLSSGHLMPSIGFGCWKLANATAGEQVYQAIKAGYRLFDGAEDYGNEKEVGDGVKRAIDEGLVKREEIFLTSKLWNNYHDPKNVETALNKTLADLKVDYVDLFLIHFPIAFKFVPIEEKYPPGFYCGDGNNFVYEDVPILETWKALEKLVAAGKIKSIGVSNFPGALLLDLLRGATIKPAVLQVEHHPYLQQPKLIEFAQKAGVTITAYSSFGPQSFVEMNQGRALNTPTLFAHDTIKAIAAKYNKTPAEVLLRWAAQRGIAVIPKSNLPERLVQNRSFNTFDLTKEDFEEIAKLDIGLRFNDPWDWDNIPIFV
notes: full-length enzyme; redesigned CtXR expressed in E. coli BL21 (DE3), purified by dye ligand chromatography
Km [3]: 6 ± 2 mM | kcat [3]: 2.7 ± 0.3 s⁻¹ | Km [4]: 13 ± 4 mM | Km [5]: 5 ± 2 mM | kcat [5]: 0.4 ± 0.06 s⁻¹ | kcat/Km [5]: 100 ± 10 M⁻¹ s⁻¹ | Km [6]: 110 ± 25 µM | kcat [6]: 0.8 ± 0.1 s⁻¹ | kcat/Km [6]: 8700 ± 400 M⁻¹ s⁻¹
